Consider three substances from PMC5529482.

The term Kd denotes the concentration at which binding is half-saturated. Higher therefore signals weaker binding. The koff is the first-order rate constant of dissociation. Read a high koff as fast dissociation. Broadly, the kon is a measure of how fast the partners come together. In general, stoichiometry N refers to a count of units in the complex or per binding partner. One may read the EC50 as the concentration giving half of the maximal effect. Higher therefore signals weaker potency.

The target in assay [1] is mouse TNFR2-Fc fusion protein (mouse) (UniProt P25119). Briefly: quartz crystal microbalance; mouse TNFR2-Fc chemically immobilised on a carboxyl sensor chip at high density (270 Hz, saturated); muteins 2-32 nM; PBST (PBS, 0.1% Tween 20) pH 7.4, 37 °C; Attana Cell 200.
Assay [2] has as its target EHD2-sc-mTNFR2 (not stated | mouse) (UniProt P06804). Briefly: SEC; approx. 20 µg protein on BioSep-SEC-S2000 in PBS, 0.5 ml/min; size by standard proteins. A general note: SEC sorts molecules by how far they enter the pores of the column.
For assay [3], the target named is mouse TNFR2-Fc fusion protein (mouse) (UniProt P25119). Briefly: quartz crystal microbalance; mouse TNFR2-Fc chemically immobilised on a carboxyl sensor chip at low density (130 Hz, non-saturated); muteins 8-256 nM; PBST (PBS, 0.1% Tween 20) pH 7.4, 37 °C; Attana Cell 200; biphasic curves for p53- and GCN4-sc-mTNFR2.
For assay [4] the target is unchanged. Briefly: ELISA; TNFR1-Fc or TNFR2-Fc coated at 1 µg/ml in PBS, 4 °C overnight; TNF muteins in 2% skim milk powder in PBS, 1 h RT; detected with anti-TNF clone F6C5 and HRP anti-mouse IgG. On the technique in general: In an ELISA, binding on a coated surface is turned into a signal by an enzyme label.
Assay [5] addresses p53-sc-mTNFR2 (not stated | mouse) (UniProt P04637). In words: SEC; approx. 20 µg protein on BioSep-SEC-S2000 in PBS, 0.5 ml/min; size by standard proteins.

In assay [1], “EHD2-sc-mTNFR2 (from UniProt P06804 91-235; P06804 91-235; P06804 91-235) (ligand)” returned a Kd of 0.0615 nM, a koff of 3.74e-05 s⁻¹ and a kon of 607000 M⁻¹ s⁻¹. For the same substance, the stoichiometry N in assay [2] was determined as 2. In assay [3], this substance displayed a Kd of 118 nM, a koff of 0.063 s⁻¹ and an association rate constant (kon) of 533000 M⁻¹ s⁻¹. The substance further displayed an EC50 in assay [4] of 0.11 nM.

In assay [1], “p53-sc-mTNFR2 (from UniProt P04637 320-359; P06804 91-235; P06804 91-235; P06804 91-235) (ligand)” displayed a dissociation constant Kd of 0.0437 nM. For the same substance, in assay [5], the stoichiometry N was found to be 4. Besides, in assay [3], the Kd1 was 50.9 nM and the Kd2 turned out to be 3.97 nM. Further, the EC50 in assay [4] was 0.074 nM.

In assay [1], “sc-mTNFR2 (mouse TNFR2-specific (D221N/A223R) single-chain mouse TNF) (from UniProt P06804 91-235; P06804 91-235; P06804 91-235) (ligand)” gave a dissociation constant (Kd) of 0.449 nM, a koff of 0.000399 s⁻¹ and a kon of 808000 M⁻¹ s⁻¹. The substance further had an EC50 in assay [4] of 1.55 nM.
